Assay results published in doi:10.1101/2023.02.09.527830.

Target: Lassa virus nucleoprotein NP (WT) (Lassa virus (AV strain), UniProt Q9DQX7)
Assay: native MS

B1: 12 nt RNA (ssRNA)
RNA: ACACAAAGACCC
B1: binds.

B2: 9 nt RNA (ssRNA)
RNA: UAGGAAUCU
B2: binds.
